According to patent US8580556B2, “Sulfonylurea-responsive repressor proteins” (E. I. du Pont de Nemours and Company, priority 2008, dated 2013):
Like-named read-outs stand apart in the source and are kept apart here.

Tested on: tetA promoter (PtetA)-lacZ reporter in E. coli KM3
Type: cell-based
Details: for relative β-galactosidase activity, inducer Blank / relative β-galactosidase activity, inducer None / relative β-galactosidase activity, No inducer: no inducer; for Inducer preference: Table 8, inducers given as numbers without key
[1] = Table 6, reverse repressor hits, anhydrotetracycline
[2] = Table 6, reverse repressor hits, chlorimuron, same plate assay format as Table 4
[3] = Table 6, reverse repressor hits, chlorsulfuron, same plate assay format as Table 4
[4] = Table 6, reverse repressor hits, ethametsulfuron, same plate assay format as Table 4
[5] = Table 6, reverse repressor hits, metsulfuron, same plate assay format as Table 4
[6] = Table 6, reverse repressor hits, nicosulfuron, same plate assay format as Table 4
[7] = Table 6, reverse repressor hits
[8] = Table 6, reverse repressor hits, rimsulfuron, same plate assay format as Table 4
[9] = Table 6, reverse repressor hits, sulfometuron, same plate assay format as Table 4
[10] = Table 6, reverse repressor hits, thifensulfuron, same plate assay format as Table 4
[11] = Table 6, reverse repressor hits, tribenuron, same plate assay format as Table 4
[12] = Table 4, anhydrotetracycline 0.4 μM, 48 hrs at 30° C.
[13] = Table 4, chlorimuron 20 μg/ml (20 ppm), 48 hrs at 30° C.
[14] = Table 4, chlorsulfuron 20 μg/ml (20 ppm), 48 hrs at 30° C.
[15] = Table 4, ethametsulfuron 20 μg/ml (20 ppm), 48 hrs at 30° C.
[16] = Table 4, metsulfuron 20 μg/ml (20 ppm), 48 hrs at 30° C.
[17] = Table 4, nicosulfuron 20 μg/ml (20 ppm), 48 hrs at 30° C.
[18] = Table 4, rimsulfuron 20 μg/ml (20 ppm), 48 hrs at 30° C.
[19] = Table 4, thifensulfuron 20 μg/ml (20 ppm), 48 hrs at 30° C.
[20] = Table 4, tribenuron 20 μg/ml (20 ppm), 48 hrs at 30° C.
[21] = Table 10, chlorsulfuron 2 ppm, 48 hours at 30° C.
[22] = Table 10, ethametsulfuron 2 ppm, 48 hours at 30° C.
[23] = Table 10, metsulfuron 2 ppm, 48 hours at 30° C.
[24] = Table 10, sulfometuron 2 ppm, 48 hours at 30° C.
[25] = Table 4, sulfometuron 20 μg/ml (20 ppm), 48 hrs at 30° C.

Molecule | relative β-galactosidase activity, inducer atc [1] | relative β-galactosidase activity, inducer Ci [2] | relative β-galactosidase activity, inducer Cs [3] | relative β-galactosidase activity, inducer Es [4] | relative β-galactosidase activity, inducer Ms [5] | relative β-galactosidase activity, inducer Ns [6] | relative β-galactosidase activity, inducer Blank [7] | relative β-galactosidase activity, inducer Rs [8] | relative β-galactosidase activity, inducer Sm [9] | relative β-galactosidase activity, inducer Ts [10] | relative β-galactosidase activity, inducer Tb [11] | relative β-galactosidase activity, inducer atc [12] | relative β-galactosidase activity, inducer Ci [13] | relative β-galactosidase activity, inducer Ns [17] | relative β-galactosidase activity, inducer None (Table 4, 48 hrs at 30° C.) | relative β-galactosidase activity, inducer Rs [18] | relative β-galactosidase activity, inducer Ts [19] | relative β-galactosidase activity, inducer Tb [20] | further results
L1-21: library L1 reverse repressor hit (SEQ ID NO: 1206-1213) (protein, rSuR L1-21) MGSRLDKSKVINSALELLNEVGIEGLTTRKLAQKLGVEQPTLYWHVKNKRALLDALAIEMLDRHATHFCPLEGESWQDFLRNNAKSFRCALLSHRDGAKVCLGTAGTEKQYETLENCLAFLCQQGFSLENALYARSAVVCFTLGCVLFDQEMQVAKEERETPTTDSMPPLLRQAAELLDHQGAEPAFLFGLELIICGLEKQLKCESGS | 2.81 | 0.07 | 0.89 | 0.61 | 0.89 | 2.74 | 2.88 | 2.31 | 2.39 | 0.79 | 2.13 | – | – | – | – | – | – | – | –
L1-36: library L1 reverse repressor hit (SEQ ID NO: 1206-1213) (protein, rSuR L1-36) MGSRLDKSKVINSALELLNEVGIEGLTTRKLAQKLGVEQPTLYWHVKNKRALLDALAIEMADRHHTHFCPLEGESWQDFLRNAAKSMRCALLSHRDGAKVRLGTAWTEKQYETHENVLAFLCQQGFSLENALYALKAVSGFTLGCVLKDQEMQVAKEERETPTTDSMPPLLRQATELVDHQGAEPAFLFGLELIICGLEKQLKCESGS | 1.70 | 0.21 | 0.24 | 0.20 | 0.38 | 1.81 | 1.52 | 1.84 | 0.50 | 0.48 | 0.57 | – | – | – | – | – | – | – | –
L1-41: library L1 reverse repressor hit (SEQ ID NO: 1206-1213) (protein, rSuR L1-41) MGSRLDKSKVINSALELLNEVGIEGLTTRKLAQKLGVEQPTLYWHVKNKRALLDALAIEMLDRNQTHFCPLEGESWQDFLRNNAKSWRCALLSHRDGAKVMLGTRNTEKQYETAENGLAFLCQQGFSLENALYACRAVWTFTLGCVLDDQETQVAKEERETPTSDSMPPLLRQAMELKDHQGAEPAFLFGLELIICGLEKQLKCESGS | 4.21 | 0.39 | 0.61 | 0.18 | 0.56 | 2.75 | 4.05 | 4.05 | 0.67 | 1.46 | 1.41 | – | – | – | – | – | – | – | –
L1-18: library L1 reverse repressor hit (SEQ ID NO: 1206-1213) (protein, rSuR L1-18) MGSRLDKSKVINSALELLNEVGIEGLTTRKLAQKLGVEQPTLYWHVKNKRALLDALAIEMLDRHLTHFCPLEGESWQDFLRNNAKSMRCALLSHRDGAKVWLGTGFTEKQYETKENRLAFLCQQGFSLENALYAIRAVSRFTLGCVLQDQEPQVAKEERETPTTDSMPPLLRQAVELFDHQGAEPAFLFGLELIICGLEKQLKCESES | 2.35 | 0.36 | 1.22 | 0.37 | 0.79 | 1.44 | 1.34 | 2.55 | 0.94 | 1.13 | 1.65 | – | – | – | – | – | – | – | –
L1-22: library L1 hit, sulfonylurea-responsive TetR(B) variant, SEQ ID NO: 7 (protein, Sulfornylurea responsive repressor L1-22) MGSRLDKSKVINSALELLNEVGIEGLTTRKLAQKLGVEQPTLYWHVKNKRALLDALAIEMMDRHHTHFCPLEGESWQDFLRNTAKSYRCALLSHRDGAKVCLGTAITEKQYETKENNLAFLCQQGFSLENALYARQAVRVFTLGCVLFDQEMQVAKEERETPTTDSMPPLLRQASELLDHQGAEPAFLFGLELIICGLEKQLKSESGS | – | – | – | – | – | – | – | – | – | – | – | 0.0 | 10.4 | 0.2 | 0.1 | 0.1 | 0.0 | 0.3 | relative β-galactosidase activity, inducer Cs [14]: 0.2; relative β-galactosidase activity, inducer Es [15]: 0.3; relative β-galactosidase activity, inducer Ms [16]: 0.1; Inducer preference: 3; relative β-galactosidase activity, inducer Cs [21]: 0.2; relative β-galactosidase activity, inducer Es [22]: 0.2; relative β-galactosidase activity, inducer Ms [23]: 0.2; relative β-galactosidase activity, No inducer (Table 10, 48 hours at 30° C.): 0.2; relative β-galactosidase activity, inducer Sm [24]: 1.8
L1-39: library L1 reverse repressor hit (SEQ ID NO: 1206-1213) (protein, rSuR L1-39) MGSRLDKSKVINSALELLNEVGIEGLTTRKLAQKLGVEQPTLYWHVKNKRALLDALAIEMMDRHQTHFCPLEGESWQDFLRNTAKSYRCALLSHRDGAKVILGTRWTEKQYETRENVLAFLCQQGFSLENALYAWAAVGPFTLGCVLRDQERQVAKEERETPTTDSMPPLLRQALELMDHQGAEPAFLFGLELIICGLEKQLKCESGS | 4.92 | 0.49 | 0.89 | 0.60 | 0.75 | 3.03 | 3.65 | 4.72 | 0.91 | 1.42 | 0.97 | – | – | – | – | – | – | – | –
L1-44: library L1 hit, sulfonylurea-responsive TetR(B) variant, SEQ ID NO: 13 (protein, Sulfonylurea responsive repressor L1-44) MGSRLDKSKVINSALELLNEVGIEGLTTRKLAQKLGVEQPTLYWHVKNKRALLDALAIEMLDRHATHFCPLEGESWQDFLRNNAKSYRCALLSHRDGAKVYLGTAVTEKQYETAENQLAFLCQQGFSLENALYAVKAVAGFTLGCVLWDQESQVAKEERETPTTASMPPLLRQAVELADHQGAEPAFLFGLELIICGLEKQLKCESGS | – | – | – | – | – | – | – | – | – | – | – | 0.2 | 6.7 | 0.4 | 0.2 | 0.3 | 1.9 | 0.4 | relative β-galactosidase activity, inducer Sm [25]: 0.4; Inducer preference: 9 (weak); relative β-galactosidase activity, inducer Cs [21]: 1.9; relative β-galactosidase activity, inducer Es [22]: 1.0; relative β-galactosidase activity, inducer Ms [23]: 0.5; relative β-galactosidase activity, No inducer (Table 10, 48 hours at 30° C.): 0.6; relative β-galactosidase activity, inducer Sm [24]: 0.6
L1-7: library L1 hit, sulfonylurea-responsive TetR(B) variant, SEQ ID NO: 4 (protein, Sulfonylurea responsive repressor L1-07) MGSRLDKSKVINSALELLNEVGIEGLTTRKLAQKLGVEQPTLYWHVKNKRALLDALAIEMLDRHNTHFCPLEGESWQDFLRNNAKSWRCALLSHRDGAKVVLGTAITEKQYETHENPLAFLCQQGFSLENALYAIAAVRRFTLGCVLVDQERQVAKEERETPTTDSMPPLLRQASELQDHQGAEPAFLFGLELIICGLEKQLKCERGS | – | – | – | – | – | – | – | – | – | – | – | 0.0 | 16.5 | 0.1 | 0.0 | 0.2 | 0.1 | 0.2 | relative β-galactosidase activity, inducer Cs [14]: 3.1; relative β-galactosidase activity, inducer Es [15]: 0.1; relative β-galactosidase activity, inducer Ms [16]: 0.2; relative β-galactosidase activity, inducer Sm [25]: 6.4
